Data: the RNAGym collection of RNA variant scans (doi:10.1073/pnas.2313332121)

B1: TPR t1 (parent)
chain: GACCAAUCUGCCCUCAGAGCUCGAGAACAUCUUCGGAUGCAGAGGAGGCAGGCUUCGGUGGCGCGAUAGCGCCAACGUCCUCAACCUCCAAUGCAUCCCACCACAUGAUGAUGCCUGAAGAGCCUUGGUUUUUUG

Variants of: B1
Assay: polymerase ribozyme fitness, log enrichment relative to wild type (log ratio); higher = more active; in vitro selection for triplet polymerase activity
Procedure, shortened: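 Each subunit of a heterodimeric triplet polymerase ribozyme was represented by a PCR-built, transcribed mutant library that underwent triplicate single-round in vitro selection with frozen incubation at −7 °C. Extended constructs were recovered by gel excision, streptavidin-bead capture and RT-PCR, and Illumina sequencing of input and output libraries kept genotypes with ≥10 input reads and ≥1 read per output. Fitness is the logarithm of genotype enrichment relative to wild-type enrichment, from inverse-variance-weighted replicate averages, with a logarithm base of 2.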

Variant	polymerase ribozyme fitness (log ratio)
GACCAAUCUGCCCUCAGAGCUCGAGAACAUCUUCGGAUGUAGAGGAGGCAGGCUUCGGUGGCGCGAUAGCGACAACGUCCUCAACCUCCAAUGCAUCCCACCACAUGAUGAUGCCUGAAGAGCCUUGGUUUUUUG [C40U C72A]	-0.504
GACCAAUCUGCCCUCAGAGCUCGAGAACAUCUUCGGAUGUAGAGGAGGCAGGCUUCGGUGGCGCGAUAGCGUCAACGUCCUCAACCUCCAAUGCAUCCCACCACAUGAUGAUGCCUGAAGAGCCUUGGUUUUUUG [C40U C72U]	-1.69
GACCAAUCUGCCCUCAGAGCUCGAGAACAUCUUCGGAUGGAGAGGAGGCAGGCUUCGGUGGCGCGAUAGCUCCAACGUACUCAACCUCCAAUGCAUCCCACCACAUGAUGAUGCCUGAAGAGCCUUGGUUUUUUG [C40G G71U C79A]	-2.32
GACCAAUCUGCCCUCAGAGCUCGAGAACAUCUUCGGAUGUAGAGGAGGCAGGCUUCGGUGGCGCGAUAGCGCAAACGUCCUCAACCUCCAAUGCAUCCCACCACAUGAUGAUGCCUGAAGAGCCUUGGUUUUUUG [C40U C73A]	-0.621
GACCAAUCUGCCCUCAGAGCUCGAGAACAUCUUCGGAUGGAGAGGAGGCAGGCUUCGGUGUCGCGAUAGCGGCAACGUCCUCAACCUCCAAUGCAUCCCACCACAUGAUGAUGCCUCAAGAGCCUUGGUUUUUUG [C40G G61U C72G G117C]	-4.91
GACCAAUCUGCCCUCAGAGCUCGAGAACAUCUUCGGAUGGAGAGGAGGCAGGCUUCGGUGACGCGAUAGCGUCAACGUCCUCAACCUCCAAUGCAUCCCACCACAUGAUGACGCCUGAAGAGCCUUGGUUUUUUG [C40G G61A C72U U112C]	1.6
GACCAAUCUGCCCUCAGAGCUCGAGAACAUCUUCGGAUGUAGAGGAGGCAGGCUUCGGUGGCGUGAUAGCGCGAACGUCCUCAACCUCCAAUGCAUCCCACCACAUGAUGAUGCCUGAAGAACCUUGGUUUUUUG [C40U C64U C73G G122A]	-5.15
GACCAAUCUGCCCUCAGAGCUCGAGAACAUCUUCGGAUGGAGAGGAGGCAGGCUUCGGUGGCGCGAUAGCGCCAACGUCCUCAACCUCCAAUGCAUCCCACCACAUGAUGAUACCUGAAGAGCCUUGGUUUUUUG [C40G G113A]	-0.856
GACCAAUCUGCCCUCAGAGCUCGAGAACAUCUUCGGAUGGAGAGGAGGCAGGCUUCGGUGGCGCGAUAGCGCCAACGUCCUCAACCUCCAAUGCAUCCCACCACAUGAUGAUGCCCGAAGAGCCUUGGUUUUUUG [C40G U116C]	-2.34
GACCAAUCUGCCCUCAGAGCUCGAGAACAUCUUCGGAUGUCGAGGAGUCAGGCUUUGCUGGCGCGAUAGCGCCAACGUCCUCAACCUCCAAUGCAUCCCACCACAUGAUGAUGCCUGAAGAGCCUUGGUUUUUUG [C40U A41C G48U C56U G58C]	-1.43
GACCAAUCUGCCCUCAGAGCUCGAGAACAUCUUCGGAUGGAGAGGAGACAGGCUUCGGUGGCGCGAUAGCGCCAACGUCCUCAACCUCCAAUGCAUCCCACCACAUGAUGAUGCCUGAAGAGCCUUGGUUUUUUG [C40G G48A]	-1.87
GACCAAUCUGCCCUCAGAGCUCGAGAACAUCUUCGGAUGGAGAGGAGUCAGGCUUCGGUGGCGCGAUAGCGCCAACGUCCUCAACCUCCAAUGCAUCCCACCACAUGAUGAUGCCUGAAGAGCCUUGGUUUUUUG [C40G G48U]	-1.55
GACCAAUCUGCCCUCAGAGCUCGAGAACAUCUUCGGAUGUAGAGGAGGCAGGCUUCGGUGGCGCGAUAGCGCCAACGUCCUCAACCUCCAAUGCAUCCCGCCACAUGAUGAUGCCUGAAGAGCCUUGGUUUUUUG [C40U A100G]	-4.16
GACCAAUCUGCCCUCAGAGCUCGAGAACAUCUUCGGAUGGAGAGGAGGCAAGCUUCGGUGGCGCGAUGGCGCCAACGUCCUCAACCUCCAAUGCAUCCCACCACAUGAUGAUGCCUGAAGAGCCUUGGUUUUUUG [C40G G51A A68G]	-6.59
GACCAAUCUGCCCUCAGAGCUCGAGAACAUCUUCGGAUGUAGAGGAGGCAGGCUUCGGUGGCGCGAUAGAGCCAACGUCCUCAACCUCCAAUGCAUCCCACCACAUGAUGAUGCCUGAAGAGCCUUGAUUUUUUG [C40U C70A G128A]	-4.95
GACCAAUCUGCCCUCAGAGCUCGAGAACAUCUUCGGAUGUAGAGGAGGCAGGCUUGGGUGGCGCGAUAGCGACAAAGUCCUCAACCUCCAAUGCAUCCCACCACAUGAUGAUGCCUGAAGAGCCUUGGUUUUUUG [C40U C56G C72A C76A]	-2.93
GACCAAUCUGCCCUCAGAGCUCGAGAACAUCUUCGGAUGGAGAGGAGGCAGGCUUCGGUGGCUCGAUAGCGCCAACGUCGUCAACCUCCAAUGCAUCCCACCACAUGAUGAUGCCUGAAGAGUCUUGGUUUUUUG [C40G G63U C80G C123U]	-6.43
GACCAAUCUGCCCUCAGAGCUCGAGAACAUCUUCGGAUGUCGAGGAGGCAGGCUUAGGUGGCGCGAUAGCGCCAACGUCCUCAACCUCCAAUGCAUCCCACCACAUGAUGAUGACUGAAGAGCCUUGGUUUUUUG [C40U A41C C56A C114A]	-2.89
GACCAAUCUGCCCUCAGAGCUCGAGAACAUCUUCGGAUGGAGAGGAGGCAGGCUUCGGUUGCGCGAUAGCGCCAACGUCCUCAACCUCCAAUGCAUCCCACCACAUGAUGAUGCCUGAAGAGCCUUGGUUUUUUG [C40G G60U]	-0.737
GACCAAUCUGCCCUCAGAGCUCGAGAACAUCUUCGGAUGGAGAGGAGGCAGGCUUCGGUGCCGCGAUAUCGCCAACGUCCUCAACCUCCAAUGCAUCCCACCACAUGAUGAUGCCUGAAGAGCCUUGGUUUUUUG [C40G G61C G69U]	-2.88
GACCAAUCUGCCCUCAGAGCUCGAGAACAUCUUCGGAUGUAGAGGAGGCAGGAUUCGGUGGCGCGAUAGCGCCAACGUCCUCAACCUCCAAUGCAUCCCACCACAUGAUGAUGCCUGAAGAGCCUUGGUUUUUUG [C40U C53A]	0.0513

Variant	polymerase ribozyme fitness (log ratio)
GACCAAUCUGCCCUCAGAGCUCGAGAACAUCUUCGGAUGUAGAGGAGGCAGGGUUCGGUGGCGCGAUAGCGCCAACGUCCUCAACCUCCAAUGCAUCCCACCACAUGAUGAUGCCUGAAGAGCCUUGGUUUUUUG [C40U C53G]	0.608
GACCAAUCUGCCCUCAGAGCUCGAGAACAUCUUCGGAUGGAGAGGAGGCAGGCUUCGGUGGCGCGAUAGCGCCAACGUCCUCAACCUCCAAUGCAUCCCACCACAUGAUUAUGCCUGAAGAGCCUUGGUUUUUUG [C40G G110U]	-1.7
GACCAAUCUGCCCUCAGAGCUCGAGAACAUCUUCGGAUGUAGCGGAGGCAGGCUUCGGUGGCGCGAUAGCGCCAACGUCCUCAACCUCCAAUCCAUCCCACCACAUGAUGAUGCAUGAAGAGCCUUGGUUUUUUG [C40U A43C G93C C115A]	-2.74
GACCAAUCUGCCCUCAGAGCUCGAGAACAUCUUCGGAUGUCGAGGAGGCAGGCUUCGGUGGCGCGAUAGCGCCAAUGUCCUCAACCUCCAAUGCAUCCCACCACAUGAUGAAGCCUGAAGAACCUUGGUUUUUUG [C40U A41C C76U U112A G122A]	-3.19
GACCAAUCUGCCCUCAGAGCUCGAGAACAUCUUCGGAUGUAGAGGAGGCAGGCUUCGGUGGCGCGAUAGCGCCCACGUCCUCAACCUCCAAUGCAUCCCACCACAUGAUGAUGCCUGAAAAGCCUUGGUUCUUUG [C40U A74C G120A U131C]	0.155
GACCAAUCUGCCCUCAGAGCUCGAGAACAUCUUCGGAUGGAGAGGAGGCAGGCUUCGGUGGCGCGAUAGCGCCAACGUCCUCAACCUCCAAUGCAUCCCACCACAUGAUGAUGCCUGAAGAUCCUUGGUUUUUUG [C40G G122U]	-0.991
GACCAAUCUGCCCUCAGAGCUCGAGAACAUCUUCGGAUGUAGAGGAGGCAGGCUUCGGUGGCGUGAUAGCGCCAACGUCCUCAACCUCCCAUGCAUCCCACCACAUGAUGAUGCCUGAAGAGCCUUGGUUUUUUG [C40U C64U A90C]	-1.97
GACCAAUCUGCCCUCAGAGCUCGAGAACAUCUUCGGAUGUAGAGGAGGGAGGCUUCGGAGGCGCGAUAGCGCCAACGUCCUCAACCUCCAAUGCAUCCCACCACAUGAUGAUGCCUGAAGAGCCUUGGUUUUUUG [C40U C49G U59A]	-1.73
GACCAAUCUGCCCUCAGAGCUCGAGAACAUCUUCGGAUGGAGAGGAGGCAGGCUUCGGUUGCGCGAUGGCGCCAACGUCCUCAACCUCCAAUGCAUCCCACCACAUGAUGAUGCCUGAAGAGCCUUGGUUUUUUG [C40G G60U A68G]	-4.86
GACCAAUCUGCCCUCAGAGCUCGAGAACAUCUUCGGAUGUAGAGGAGGCAGGCUUCGGUGGCGCGAUAGCGCCGACUUCCUCAACCUCCAAUGCAUCCCACCACAUGAUGAUGCCUGAAGAGUCUUGGUUUUUUG [C40U A74G G77U C123U]	1.22
GACCAAUCUGCCCUCAGAGCUCGAGAACAUCUUCGGAUGGAGAGGAGGCAGGCUUCCGUGGCGCGAUAGCGCCAACGUCCUCAACCUCCAAUGCAUCCCACCACAUGAUGAUGCCUGAAGAGCCUUGGUUUUUUG [C40G G57C]	-1.56
GACCAAUCUGCCCUCAGAGCUCGAGAACAUCUUCGGAUGUAGAGGAGGCAGGCUUCGGUGGCGCGAUAGCGCCAACGUCCUCAACCUCCAAUGCUUCCCACCACAUGAUGAUGCCUCAAGCGCCUUGGUUUUUUG [C40U A95U G117C A121C]	-5.49
GACCAAUCUGCCCUCAGAGCUCGAGAACAUCUUCGGAUGGAGAGGAGGCAGGCUGCGGUGGCGCGAUAGCACCAACGUCCUCAAACUCCAAUGCAUCCCACCACAUGAUGAUGCCUGAAGAGCCUUGGUUUUUUG [C40G U55G G71A C85A]	-3.12
GACCAAUCUGCCCUCAGAGCUCGAGAACAUCUUCGGAUGUAGAGGAGGCAGGUUUCGGUGGCGCGAUAGCGCCAGCGUCCUUAACCUCCAAUGCAUCCCACCACAUGAUGAUGCCUGAAGAGCCUUGGUUUUUUG [C40U C53U A75G C82U]	-0.592
GACCAAUCUGCCCUCAGAGCUCGAGAACAUCUUCGGAUGGAGAGGAGGCAGGCUUCUGUGGCGCGAUAGCGCCAACGUCCUCAACCUCCACUGCAUCCCACCACAUGAUGAUGCCUGAAGAGCCUUGGUUUUUUG [C40G G57U A91C]	-3.44
GACCAAUCUGCCCUCAGAGCUCGAGAACAUCUUCGGAUGUAGAGGAGGCAGGAUUCGGUGGCGCGAUAGCGCCAACGUCCUCAACCUCCAAUGCAUCCCACCACAUGAUGAUCCCUGAAGAGCCUUGGUUUUUUG [C40U C53A G113C]	-2.73
GACCAAUCUGCCCUCAGAGCUCGAGAACAUCUUCGGAUGGAGAGGAGGCAGGCUUCGGUGGCGCGAUAGCGCCAACGUCCUCAACCUCCAAUGCAUCCCACCACAUGAUGAUGCCUGAAGAGCCUUCGUUUUUUG [C40G G127C]	-1.55
GACCAAUCUGCCCUCAGAGCUCGAGAACAUCUUCGGAUGGAGAGGAGGCAGACUUCGGUGGUGCGAUAGCGCCAACGUCCUCAACCUCCAAUGCAUCCCACCACAUGAUGAUGCCUGAAGAGCCUUGCUUUUUUG [C40G G52A C62U G128C]	-3.34
GACCAAUCUGCCCUCAGAGCUCGAGAACAUCUUCGGAUGGAGAGGAGGCAGGCUUCGGUGGCGCGAUAGCGCCAACGUCCUCAACCUCCAACGCAUCCCACCACAUGAUGAUGCCUGAAGAGCCUUGGUUUUUUG [C40G U92C]	-1.63
GACCAAUCUGCCCUCAGAGCUCGAGAACAUCUUCGGAUGGAGAGGAGGCAGGCUUCGGUGGCGCGAUAGCGCCAACGUCCUCAACCUCCAAGGCAUCCCACCACAUGAUGAUGCCUGAAGAGCCUUGGUUUUUUG [C40G U92G]	-2.95
GACCAAUCUGCCCUCAGAGCUCGAGAACAUCUUCGGAUGGAGAGGAUGCAGGCUUCGGUGGCGCGAUAGCGCCAACGUCCUCAACCUCCAAUUCAUCCCACCACAUGAUGAUGCCUGAAGAGCCUUGGCUUUGUG [C40G G47U G93U U129C U133G]	-2.76
